Article PMC5051544

Biological target: T1, Bacteriorhodopsin, P02945
T1 chain: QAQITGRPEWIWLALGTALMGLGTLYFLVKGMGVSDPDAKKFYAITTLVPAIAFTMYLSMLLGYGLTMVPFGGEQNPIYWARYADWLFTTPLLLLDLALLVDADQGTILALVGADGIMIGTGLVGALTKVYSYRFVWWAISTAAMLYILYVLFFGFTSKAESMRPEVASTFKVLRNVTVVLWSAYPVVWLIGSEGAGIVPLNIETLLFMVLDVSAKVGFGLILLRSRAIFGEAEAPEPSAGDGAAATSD
Assay: SEC
Conditions: remark: other sources report otherwise

- stoichiometry N: 3 per nanodisc
B1: Bacteriorhodopsin, P02945 14-262 (natural protein)
chain: T1 chain
